Here are results for 1 substance from article PMC10689251.

Usually stoichiometry N stands for the number of molecules, sites or subunits per partner or assembly.

The experiment has as its target RuBisCO large subunit CbbL (Cyanobium sp. PCC 7001). As to the kind of experiment: cryo-EM structure; single-particle analysis of RuBisCO particles spilled from broken native α-carboxysomes of Cyanobium sp. PCC 7001 (sample ~1 mg/mL in TEMB buffer, graphene oxide coated grids); refined with D4 symmetry (2.87 Å) and without symmetry (3.79 Å); density for RuBP and magnesium in the active site.

With “RuBisCO large subunit CbbL (natural protein)”, the stoichiometry N is 8.
